Laboratory results from patent publication US20230203188A1 (published 2023).

T1: full-length cyno SIRPβ1v3 (XP_005568593, clone 1HC6), on CHO cells (cynomolgus monkey, UniProt A0A2K5VYQ9)
T1 construct: whole, on cells; also called Cynomolgus SIRPβ1v3 XP-005568593 Clone 1HC6
T1 sequence: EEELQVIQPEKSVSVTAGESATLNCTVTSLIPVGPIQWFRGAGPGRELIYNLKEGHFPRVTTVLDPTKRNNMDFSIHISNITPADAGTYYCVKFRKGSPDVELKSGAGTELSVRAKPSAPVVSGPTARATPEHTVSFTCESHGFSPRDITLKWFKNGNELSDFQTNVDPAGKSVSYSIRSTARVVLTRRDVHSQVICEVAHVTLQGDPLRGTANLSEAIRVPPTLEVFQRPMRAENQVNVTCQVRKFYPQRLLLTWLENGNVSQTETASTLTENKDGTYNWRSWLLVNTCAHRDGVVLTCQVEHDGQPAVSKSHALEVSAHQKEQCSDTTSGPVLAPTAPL


Tests used:
[1] = target: T1, full-length cyno SIRPβ1v3 …; experiment: flow cytometry on CHO cells expressing the target
Protocol: (§1) Antibody binding to cells expressing full-length cynomolgus SIRPβ1 (XP_005568598) and SIRPβ1v3 (XP_005568593) is evaluated by flow cytometry. SIRPβ1- or SIRPβ31V3-expressing CHO cells are blocked with donkey IgG and incubated on ice with increasing concentrations of antibodies for 60 minutes, washed and stained with AF647-conjugated donkey F(ab′)₂ anti-human IgG secondary reagent. Cells are washed, fixed, and analyzed by flow cytometry. Median fluorescent intensity is determined and used as a measure of antibody binding.

[2] = target: T2, full-length cyno SIRPβ1 (XP_005568598, clone PA2), on CHO cells (cynomolgus monkey); experiment: flow cytometry on CHO cells expressing the target
T2 construct: whole, on cells; also called Cynomolgus SIRPβ1 XP_005568598 Clone PA2
Protocol: as §1

Row | EC50 [1] [nM] | EC50 [2] [nM] | Binder
1 | 0.4 |  | KWAR23 (antibody, V domains shown) VH: EVQLQQSGAELVKPGASVKLSCTASGFNIKDYYIHWVQQRTEQGLEWIGRIDPEDGETKYAPKFQDKATITADTSSNTAYLHLSSLTSEDTAVYYCARWGAYWGQGTLVTVSS VL: QIVLTQSPAIMSASPGEKVTLTCSASSSVSSSYLYWYQQKPGSSPKLWIYSTSNLASGVPARFSGSGSGTSYSLTISSMEAEDAASYFCHQWSSYPRTFGAGTKLELK
2 |  | 0.7 | Antibody A (antibody, human IgG1, kappa, L234A L235A, human IgG1 (LALA) backbone, kappa) heavy: not shown light: DIQMTQSPSSLSASVGDRVTITCRASQDINNYLAWFQQKPGKAPKSLIYTASSLHSGVPSKFSGSGSGTDFTLTISSLQPEDFATYYCQQYVSYPYTFGQGTKLEIKRTVAAPSVFIFPPSDEQLKSGTASVVCLLNNFYPREAKVQWKVDNALQSGNSQESVTEQDSKDSTYSLSSTLTLSKADYEKHKVYACEVTHQGLSSPVTKSFNRGEC
3 |  | 0.6 | Antibody A10 (antibody, human IgG1, kappa, L234A L235A, engineered variant of Antibody A; IgG1 (LALA)) heavy: not shown light: DIQMTQSPSSLSASVGDRVTITCRASQDINNYLAWFQQKPGKAPKSLIYTASSLHSGVPSKFSGSGSGTDFTLTISSLQPEDFATYYCQQYVSYPYTFGQGTKLEIKRTVAAPSVFIFPPSDEQLKSGTASVVCLLNNFYPREAKVQWKVDNALQSGNSQESVTEQDSKDSTYSLSSTLTLSKADYEKHKVYACEVTHQGLSSPVTKSFNRGEC
